Experimental data: patent publication US9587002B2, “Sequence of nucleotides and peptides GSE 24.2 of dyskerin, which can induce telomerase activity, method for obtaining same, therapeutic compositions and applications thereof” (CONSEJO SUPERIOR DE INVESTIGACIONES CIENTIFICAS, priority 2005, dated 2017)
“Also recorded” adds a separate entry of the source.

Tests used:
293T cells = assay: Cell viability of 293T cell lines treated with cisplatin (crystal violet); type: cell-based, human; conditions: 293T cells stably expressing the construct vs empty vector pLNCX; cisplatin 0-100 μg/ml, 72 hours
Description: (§1) FIG. 2.—Cell viability and activation of the JNK and p38 death pathways in 293T cell lines: pLNCX and 24.2, treated with cisplatin. A) Cell viability. After seeding the 293T cells: expressing the empty vector (pLNCX) and GSE 24.2 (24.2) in 24-well plates, they were incubated with concentrations between 0-100 μg/ml of cisplatin. The cell viability was measured by means of the crystal violet technique after 72 hours of exposure to the drug. The data represent the mean of two experiments performed in quadruplicate. B) Activation kinetics. Subsequently, the activation of JNK and p38 was studied using antibodies that specifically recognise the active forms. As a load control, the levels of JNK-1 were detected.
FIG. 4.—Viability of the 293T cell lines: pLNCX, 24.2, DSK5′ and DSK treated with cisplatin. The cell lines described above (pLNCX and 24.2), the DSK 5′ cell line, which expresses a fragment of dyskerin described in the preceding figure, and a fourth one that overexpresses the complete cDNA of dyskerin (DSK) have been used. The viability was analyzed as shown in FIG. 1 A. The data represent the mean of two experiments performed in quadruplicate. […]
Growth curves. […] The number of cells was determined by estimating the absorbance at 595 nm. […]

p38 = assay: Activation of p38 by cisplatin in 293T cell lines (Western blot); type: cell-based, human; conditions: 293T cells stably expressing GSE 24.2 vs pLNCX; cisplatin 6 hours
Description: as §1
The pLNCX24-2 plasmid containing GSE of the same name was transfected in a stable manner in the 293T cells and, as a control, the pLNCX empty vector was transfected. After verifying, by means of PCR, that the 24.2 cell line contained this insert (data not shown), the response to cisplatin was studied, creating a viability curve with this drug. […] JNK and p38 are MAPKs that are activated in response to genotoxic agents (Sanchez-Perez et al., 1998).
Western Blot and antibodies. 20 μg of protein were separated in SDS-polyacrylamide gels; subsequently, they were transferred to Immobilon-P membranes (Millipore) by humid transfer. […]

B1: GSE 24.2: 165-pb cDNA fragment (nucleotides 268 to 433) of human dyskerin, SEQ ID NO1, encoding peptide SEQ ID NO2, expressed from pLNCX plasmid (nucleic acid, listed as Homo sapiens)
DNA: GGTTTCATTAATCTTGACAAGCCCTCTAACCCCTCTTCCCATGAGGTGGTAGCCTGGATTCGACGGATACTTCGGGTGGAGAAGACAGGGCACAGTGGTACTCTGGATCCCAAGGTGACTGGTTGTTTAATCGTGTGCATAGAACGAGCCACTCGCTTGGTGAAG
modifications: expressed from pLNCX plasmid; CDS (1)..(165) Sequence GSE 24.2
293T cells
  cell viability in response to cisplatin: greater viability in response to cisplatin; also recorded: survival capacity to cisplatin
p38
  dose of cisplatin required to activate p38: a greater dose of cisplatin is required to activate both kinases
